The text below walks through data of patent publication US20220251219A1 (published 2022).

Assay [1] addresses T1, recombinant mouse Sortilin (mouse, UniProt Q6PHU5 74-825).
T1 construct: also called mSort
The assay can be described thus: flow cytometry, 10 ug/ml antibody on 293 cells expressing recombinant mouse Sortilin, PE anti-human secondary.
Method: (§1) Cells were harvested, plated at 10⁵/ml in a 96 well plate, washed, and incubated in 100 μl PBS containing 10 μg/ml Mab and 2% FBS for 1 hour in ice. Cells were then washed twice and incubated in 100 μl PBS+2% FBS containing 5 μg/ml PE-conjugated anti-human secondary antibody for 30 minutes in ice. Cells were washed twice in cold PBS and data was acquired on a BD FACS Canto. Data analysis and calculation of MFI values was performed with FlowJo (TreeStar) software version 10.0.7.

Assay [2] deals with T2, recombinant human Sortilin (human, UniProt Q99523 78-830).
T2 construct: also called hSort; SORT1
In words: flow cytometry, 10 ug/ml antibody on 293 cells expressing recombinant human Sortilin, PE anti-human secondary.
Method: as §1

Assay [3] has as its target human Sortilin (human, UniProt Q99523 78-830). The assay can be described thus: cell-based or functional assay.
In assay [4] the target is mouse Sortilin (mouse, UniProt Q6PHU5 74-825). In words: cell-based or functional assay.
The target of assay [5] is T3, mouse Sortilin expressed on HEK293T cells (mouse, UniProt Q6PHU5 74-825).
T3 construct: also called msSort; mSort
In words: flow cytometry, antibody titration on HEK293T cells transiently expressing mouse Sortilin, 4 C, apparent KD by non-linear fit. A general note: In flow cytometry, cells or beads pass a laser one at a time.
Method: (§2) Antibodies were diluted in FACS buffer (PBS+2% FBS+0.01% NaAzide). After incubation on ice for 1 h, cells were washed three times in FACS buffer and incubated with anti-human PE conjugated secondary antibody (BD Biosciences, 1:100 dilution) for 30 min on ice. Then cells were washed twice in 200 μl FACS buffer, and subsequently analyzed on a FACS Canto or iQE FACS screening instrument (Intellicyt Corp).

The target of assay [6] is T4, human Sortilin expressed on HEK293T cells (human, UniProt Q99523 78-830).
T4 construct: also called hSort; HEK293T + hSort
The assay can be described thus: flow cytometry, antibody titration on HEK293T cells stably expressing human Sortilin, 4 C, apparent KD by non-linear fit.
Method: as §2

B1: anti-Sortilin antibody S-84 (antibody, V domains shown)
VH: QLQLQESGPGLVKPSETLSLTCTVSGGSISSSSYYWGWIRQPPGKGLEWIGSISYSGSTYYNPSLKSRVTISVDTSKNQFSLKLSSVTAADTAVYYCARGGTTWLVADVWGQGTMVTVSS
VL: not shown
notes: Tested as full IgG made in yeast
Take B1: the MFI binding worked out at 15400 MFI in assay [1] and 9240 MFI in assay [2].

B2: anti-Sortilin antibody S-26 (antibody, V domains shown)
VH: EVQLVESGGGLVKPGGSLRLSCAASGFTFSSYSMNWVRQAPGKGLEWVSSISSSSSYIYYADSVKGRFTISRDNAKNSLYLQMNSLRAEDTAVYYCARDRLGRGYKWNWFDPWGQGTLVTVSS
VL: DIQMTQSPSSVSASVGDRVTITCRASQGIDSWLAWYQQKPGKAPKLLIYAASSLQSGVPSRFSGSGSGTDFTLTISSLQPEDFATYYCQQGNSLPPITFGGGTKVEIK
In the case of B2, the “Percent reduction of Sortilin levels in U251 cells” value (“Percent reduction … in U251 cells” for short) in assay [3] is 17.1%. For the same molecule, the “Percent reduction of Sortilin levels in N2A cells” value (“Percent reduction … in N2A cells” below) in assay [4] amounted to 47.3%.

B3: anti-Sortilin antibody S-78 (antibody, V domains shown)
VH: QLQLQESGPGLVKPSETLSLTCTVSGGSISSSDYYWGWIRQPPGKGLEWIGSIYYSGSTYYNPSLKSRVTISVDTSKNQFSLKLSSVTAADTAVYYCARSLAMSGAYFDLWGRGTLVTVSS
VL: not shown
notes: as for B1
Turning to B3, the MFI binding was determined as 7930 MFI in assay [1] and 7120 MFI in assay [2].

B4: anti-Sortilin antibody S-6 (antibody, V domains shown)
VH: not shown
VL: EIVMTQSPATLSVSPGERATLSCRASQSVSSNLAWYQQKPGQAPRLLIYGASTRATGIPARFSGSGSGTEFTLTISSLQSEDFAVYYCQQVANYPRTFGGGTKVEIK
Regarding B4, the “Percent reduction … in U251 cells” value in assay [3] is 42.5%. Also, the “Percent reduction … in N2A cells” value in assay [4] worked out at 45.1%.

B5: anti-Sortilin antibody S-15-6-12 (antibody, V domains shown)
VH: QVQLVQSGAEVKKPGASVKVSCKASGYTFTSRYMSWVRQAPGQGLEWMGIINPVGGSTSYAQKFQGRVTMTRDTSTSTVYMELSSLRSEDTAVYYCARDPSGIALAGPGSRYYRGMDVWGQGTTVTVSS
VL: EIVMTQSPATLSVSPGERATLSCRASQSVSSNLAWYQQKPGQAPRLLIYGASTRATGIPARFSGSGSGTEFTLTISSLQSEDFAVYYCQQARLGPWTFGGGTKVEIK
In the case of B5, the values for the Kd in assay [5] and in assay [6] were 6.62 nM and 3.84 nM, respectively.

B6: anti-Sortilin antibody S-83 (antibody, V domains shown)
VH: QLQLQESGPGLVKPSETLSLTCTVSGGSISSSSYYWGWIRQPPGKGLEWIGSIYYSGSTYYNPSLKSRVTISVDTSKNQFSLKLSSVTAADTAVYYCARGSPTWLRDYYMDVWGKGTTVTVSS
VL: EIVLTQSPATLSVSPGERATLSCRASQSVSSNLAWYQQKPGQAPRLLIYGASTRATGIPARFSGSGSGTEFTLTISSLQSEDFAVYYCQQYNAFPPTFGGGTKVEIK
notes: as for B1
On to B6, for which, in assay [2], the MFI binding was 9300 MFI.

B7: anti-Sortilin antibody S-69 (antibody, V domains shown)
VH: QVQLQESGPGLVKPSQTLSLTCTVSGGSISSGGYYWSWIRQHPGKGLEWIGYIYYSGSTYYNPSLKSRVTISVDTSKNQFSLKLSSVTAADTAVYYCARDRGGTHFGADHYYYGMDVWGQGTMVTVSS
VL: EIVMTQSPATLSVSPGERATLSCRASQSVSSSLAWYQQKPGQAPRLLIYGASTRATGIPARFSGSGSGTEFTLTISSLQSEDFAVYYCQQAADWPITFGGGTKVEIK
notes: as for B1
For the molecule B7, the MFI binding in assay [1] came out at 1890 MFI; in assay [2], 8580 MFI.

B8: anti-Sortilin antibody S-15-10-13 (antibody, V domains shown)
VH: QVQLVQSGAEVKKPGASVKVSCKASGYTFTKYYMSWVRQAPGQGLEWMGIINPIGGSTSYARKFQGRVTMTRDTSTSTVYMELSSLRSEDTAVYYCARDPSGIAAAYPASRYNYGMDVWGQGTTVTVSS
VL: EIVMTQSPATLSVSPGERATLSCRASQSVSSNLAWYQQKPGQAPRLLIYGASTRATGIPARFSGSGSGTEFTLTISSLQSEDFAVYYCQQARLGPWTFGGGTKVEIK
In the case of B8, the figures for the Kd in assay [5] and in assay [6] were 4.07 nM and 2.88 nM, respectively.

B9: anti-Sortilin antibody S-81 (antibody, V domains shown)
VH: QLQLQESGPGLVKPSETLSLTCTVSGGSISSSSYYWGWIRQPPGKGLEWIGSIYYSGSTYYNPSLKSRVTISVDTSKNQFSLKLSSVTAADTAVYYCARERWDLGHGMDVWGQGTTVTVSS
VL: not shown
Turning to B9, in assay [3], the “Percent reduction … in U251 cells” value came to 18.2%. Besides, the “Percent reduction … in N2A cells” value in assay [4] amounted to 51.3%.

B10: anti-Sortilin antibody S-81 (antibody, V domains shown)
VH: QLQLQESGPGLVKPSETLSLTCTVSGGSISSSSYYWGWIRQPPGKGLEWIGSIYYSGSTYYNPSLKSRVTISVDTSKNQFSLKLSSVTAADTAVYYCARERWDLGHGMDVWGQGTTVTVSS
VL: not shown
notes: as for B1
B10: the MFI binding in assay [1] was found to be 16600 MFI; in assay [2], 8940 MFI.

B11: anti-Sortilin antibody S-73 (antibody, V domains shown)
VH: QVQLQESGPGLVKPSQTLSLTCTVSGGSISSGTYYWSWIRQHPGKGLEWIGYIYYSGSTYYNPSLKSRVTISVDTSKNQFSLKLSSVTAADTAVYYCARGVGRYRVADYWGQGTLVTVSS
VL: EIVLTQSPATLSLSPGERATLSCRASQSVSSYLAWYQQKPGQAPRLLIYDASNRATGIPARFSGSGSGTDFTLTISSLEPEDFAVYYCQQASVYPPITFGGGTKVEIK
notes: as for B1
As to B11, the MFI binding in assay [1] came to 7670 MFI; in assay [2], 8070 MFI.

B12: anti-Sortilin antibody S-74 (antibody, V domains shown)
VH: QVQLQESGPGLVKPSQTLSLTCTVSGGSISSGTYYWSWIRQHPGKGLEWIGYIYYSGSTYYNPSLKSRVTISVDTSKNQFSLKLSSVTAADTAVYYCARGVGRYRVADYWGQGTLVTVSS
VL: EIVMTQSPATLSLSPGERATLSCRASQSVSSYLAWYQQKPGQAPRLLIYDSSNRATGIPARFSGSGSGTDFTLTISSLEPEDFAVYYCQQETNMPPITFGGGTKVEIK
notes: as for B1
For B12, the values for the MFI binding in assay [1] and in assay [2] were 7300 MFI and 9210 MFI, respectively.

B13: anti-Sortilin antibody S-76 (antibody, V domains shown)
VH: QVQLQESGPGLVKPSQTLSLTCTVSGGSISSGGYYWSWIRQHPGKGLEWIGSIYYSGSTYYNPSLKSRVTISVDTSKNQFSLKLSSVTAADTAVYYCARGVGIQQQLVLGFDPWGQGTLVTVSS
VL: DIQMTQSPSSLSASVGDRVTITCRASQSISSFLNWYQQKPGKAPKLLISAASSLQSGVPSRFSGSGSGTDFTLTISSLQPEDFATYYCQQSYREPITFGGGTKVEIK
notes: as for B1
For B13, the MFI binding in assay [1] turned out to be 4180 MFI; in assay [2], 9680 MFI.
